This note sets out measurements from the NTF2 design screens of Basanta et al. (2020).

The data set is described as follows: protease stability score; higher = more stable; yeast display proteolysis, trypsin and chymotrypsin.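 Also: log10 excess protease needed over predicted unfolded state with 0 meaning unfolded.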

In the case of “DEERVKQLAEKVFKYVIKGDKDEVRKQGKPDVKYKYIDKEYEGPDALEKAVKLVKRLGMKAETKELKVKGNTVRAKFEYRKGDQTMKTEVEVHYEGDVVKEAKVKISDEVKKFVHQG”, the protease stability score worked out at 0.309. Regarding “DEERVKQVQKKAFEAVMKGNDDEMRKIGKPNVRYEYIDEKNEGQEAVDVVIQLVKKVGAEAKVRRTEVKGDTVRAIFVYNDGDQTVQTKVEVKYEGDKVKEARVELTDEVQKVLHKG”, the protease stability score was -0.027.

Sequence “DEERVNDIAHKIAQNLRTNDEEQLVRMMDENAKVTVGEHRIDGREQIRTMWHKIKQHVDHVEVKHVEARGDRIRIIIVLNHNGRQRTIVMYVSIHNGHIKVLKIESQ” gave a protease stability score of 1.51.

“DEERVQQMLEQAFKAIQNGNEEQMQKLGKPNVEYKYVDHEYEGPDAARVMVQLVKRVGAEVKQQKVEVKGNTATAVFQYHDGDQTVETTAEVEYEGDKMKKARVELTDEVKKVVHKG” displayed a protease stability score of -0.117. “DEERVRKVVEKLVDAVTRGDKDDIKKMLKKHVEFKLVDQEYKGVDQAVKVVKELHDYGMEVHVKEVRVKGDTAHATTVWKKGNTEAHVKVEYHVRDDKVEKVKIQWTEEAQKALKHG” gave a protease stability score of 0.283.

As for “DEERVRQIADKMFKAIISGNSKDVQQVVKPNIQYEYGDEKYQGPKVVDQLVKVVKKIGAEVREREKTVHGDTMTAVFQYHKGDTTVQTEAEVKYEGDKAKRLRVKLSEEAQKVIKQG”, the protease stability score is -0.114. Under “DEERYKQLMEKAFKMIKQGNEEEARKLLKPDVEYHYADKTFRGEEAAQFIVKVVQKLGAEDHNQRQEVNGDTMKADFRYTQGDQTVQTKAEVIYKGDKATEARVEMSDEVKKVLDQG” stands -0.052; under “DEERYKRLFEKVFKVVQNGNKDELKKLLAPNVEYNYVDKTYEGEEAAKAVVQLVKKVGAKAKQQKVEVKGDTATAHFQYENGDQRVETQAELHYEGDKVKKVQVKLTDEVKKVVHQG”, 0.356.

Regarding “DEESDKKFLEKIRKLFEDGDPDQFRKMFPPDATAVIGDKSVHGNQVEQAVNTFEKNRADHVRIDSFEVSNGRVDIDVVVNHNGEERRIKIVFIARNGRLEHMRFVST”, the protease stability score turned out to be 0.215. Take “DEESKKQIDNWLKAVQQGDPDQLVKNVDKDVTVEYGDKSIHGRESLMKTLEDKKKQWRLEFKSVDVDVHGDKARLDVDVVLQINGQPFRHTRTIHVHLHNGRVKHMRFRFDEQQQRDMDR”: the protease stability score stood at 1.12. “DEESLAKEFIKHVNDNADTGNPDDMAELFDPNARIEVGDKKYDGHKDITKLNEELNREADHIKYTINSVKRDGDFVRLDIEVRMDVNGKDVNHRYRANVAVTNGRLVVRSLTSS”: the protease stability score is 0.891. Turning to “DEESLDHLRKVLEKNDPDQLTELMDPDATAVIGNTEVHGREKVVTIMRRIYERADSIHIDRFSHQGDRLVADMQVNINGKKMRYEYVIRVHNGRIKYVKFHVTSEDVERDLTRAVS”, the protease stability score came to 1.67. Under “DEESLRKFAKRVFRALQTGNPEDIHRLFDKDAHFVVGDKEVHGREQAIKFLSHIRRRADRISLKRMSVRGDKVSIDLQMTVDGHRTRFIVYIQVHNGRARRLKIEEN” stands 1.57. Under “DEESMHRMVTDLMHIIDSGNPDEAVKLADPNVQVTYGDRKYHGQDAVRDYIRELKKRVDTVNLKRVELSGEKATATAVFNVNGNRVDVEMTVTAQNGKIQSIDASVRDPDQKRKEKK” stands 0.8.

Regarding “DEESNHDVARKLMRALETGDPDKLRELADKHARITVGEKTIHGREDASRFAKELRDRIDHATVKHMDVDGNKVVINMTVRVNGRDLEVFVTAIVTNGRIKHIRFQYTDEDKNKEVEG”, the protease stability score stood at 1.18. For the sequence “DEESQARKFIKQYHDVLETGDENEARRLADENVKVHVGEFHYRGSDQYAHAVKRLRNKVDHIHMTLTEISVSNGEVNVVLKVVLNYNGTNDSFKMTMRADRVNGTLVLVEVKNG”, the protease stability score was 0.389. “DEESQKQMMKEMSDVWKHNDPDEAQKLADKDVKIRYGDREYHGREDFVSAMREFSKQADSITVKHMTVQGDKIVLDIIIQYDGQHREIVVIVHVHNGRIQELQIQDG” yielded a protease stability score of 0.637. Regarding “DEESRAQSFMSKFNDNLRRGDPEKLKTYMDPNVKVQVGEKRLNGREQAARFWVEIARHVDHISVEFKSLKVTGDKIKAKAIVVLDVNGQKRRQDVVLYAQIQGDTIRLKKVDAP”, the protease stability score was found to be 1.07.

The sequence “DEESREQQVHHMMEAIKTGDEDRARTLMDKDASLQVGDKVFQGRKEAAKAVSEIVRRVDRFRVDSVTVSGNQVDAKVQFEVNGRNMQATIRIQMHNGRIQHLVIEFRDPNQYREVKK” showed a protease stability score of 1.05. Consider “DEESRRKQAQEFNENLEQGNFEELMKLLDPNAHIIIGEKEVKGREDIRKQQEEDQRRIDHVQIQSVTAHGDKIRALIRFTVNGQQTEVHVVLSFHNGRVKEMKIHTK”, for which the protease stability score is -0.324. On to “DEESVQTFAQQRRQGNFEELIKMMDPNVEMKVGDKTWTGREQVQTALEHLKERVDRIQIDHMDVKGNHVDIDYVLNFNGRNVKATQKIEMKNGSAKRIQIDATNEENEKELKKAFS”, for which the protease stability score is -0.163. Take “DEETAEQVMRELNRLLKNGNPDEMMTMMDKDARIEVGDKTYHGRDDIRRQNKEDRRRVDRFEVTSVDVRGDKADIDARFQFNGKTKRYQLFAKFHNGRVKHLEIEDK”: the protease stability score was determined as 0.034. “DEETAQKIVEKLATGDEEQKREQMDKDVTVVIGDKELRGRETIVNQLRKIRKQVDHLEVKTYSAHNGRAEIVMRMQVNGRTMEYSIRVQVHNGRIQHIKFRVRNHEVQELLDRLLS” yielded a protease stability score of 0.464. In turn, “DEETDAKKAKDDMQHVANTNNPKDRETLLDENAEIVVGDEKYQGRHDVQKLNQEIEKRVDEVRVEVTEVTIQGDKLHVDAVFRVRVNGKTEQDRKVIVMDIHNGSVKVRFIHQP” had a protease stability score of 0.94. “DEETDEKVAKTLMRIMRTGDPKQYADQADEEVRVVVGDQTYTGRESVSEAFEEWTERVDHLEIKDIRVHGEKVNIDAVVDINGHQRKIEFSMTLHNGRIKELVYTDG” came in with a protease stability score of -0.598. As to “DEETEDKARRFVEAFHTGDPKNINRLMDKDARMKYGDTTVHGRHQIDKWIKELKDEIRIELDRVEIRADNGRVTAELDMVFDVNGKPVKHTLVFIFQFHNGRMHEVKIRIDEDVLRKLKR”, the protease stability score stood at 0.746. As for “DEETHANEFLKTREKALTSNDETELRRLVPPDVRFQVGDKQIHGREEWARKLKDDRTRVDHVTVRVVSITVRPNHIKVNLQEEVVVNGTRSRDRYEAHIVNENGHMQMHSFRQQ”, the figure is -0.396; as for “DEETIKHLVKVLEDGDKKRFQKLADPNVRMRVGDKQVHGREKAATLWQHFMDSVDHFFIDHVHIDGEKAHIRADLVVNGQRDTVSIDIKVHNGRIKDVVLRFRDPDYKRKVEKVLG”, 1.56; as for “DEETIRHEARKFQEDMKDGNHDEAVKYAPPNVKIQIGDKTFHGREQMKRFFKELRDEIDHVDLEHVTFHNGRLRVEVRFKINGQDFQVVFYFNYHNGQIENFKVQYRNEEEQQKVEG”, 0.182. As to “DEETKAHKWAEKFQRALKDGDPKKMENLMDKNVKAQYGDKTIHGDEEANSWVRRMKHQVDHVSATITRVEADNGKVIVRMTVVVDHNGREQRYEVNLEAKDHNGHIHLTRLKVG”, the protease stability score is 0.262. Under “DEETKAREFIKKVQNVMRTNNPEDFVKQFDPNARMVVGDKSYHGRDDVRKWAQDLFRRADHVSMSVKRLSVHNGRFHMQADLEVHVNGHREEVKVVMNAKDENGQILIKHARFE” stands 1.77. As for “DEETKARHQIKHMNKLAQTGQLHEVAKQADPNAEFRIGDKTLRGRDNFVRQVKETADTVDHFDVQVRRVHVKGDKAKANIDLRFDVNGKQERRTLRFSAVMDNGEVVVRFMQIN”, the protease stability score is -0.03. Under “DEETKDWVDRFFQALHKNNEEELEQLMDPNAHINIGDKVWHGREEFRREHERQAKHWRFTQDITRIDVKGNKARLRVRFRMNYDGKPKDSKARIEIIIHNGKLKEYRQKDDG” stands 0.351; under “DEETLHDVLRHLKHGDPDTIDRMADENAKAVIGNQEIHGREEISKIAKDLERKVDHQEVHKVEIDGDKATVTYRQNVNGRTVYMYVIVQNHDGHIKYVVIKARDEDEMRKWEENLS”, 0.742. As for “DEETLRQANRKIQEFLSTNNFDELAKQMDKDVQIRIGDKEVHGRKDAQKMLTDIKDDADHASVHHVDVRGDKAKVRFEVNHNGSVKDVTVTITFHNGRIKRAKWHDT”, the figure is 0.089; as for “DEETNKKFASELVHVLRTGDDERLKSMADENATLEVGDKTFHGREEMRKAAEEWQKEIDDLKIESLHVNGDKVVIHFVFTVNGRTDRQIMHLHFDNGKIKSAKMHSG”, 0.96. As for “DEETNQELLERLIDLISHGDEDEFNRQADEEAKAQYGDTRYHGREEVVKAIKTLADRVDHWHIESYHVHGNEMVIDMRWTVNGRTRRANIVMEAENGRIKYVQMDDQ”, the figure is 0.765; as for “DEETQFKKLMETMKEQNKRGDPRKHEEYVDPNAKVRVGDQDLHGREDVRRVLQEWAERADHVDLKVESMSVHNGKQTAIMVIVLRYNGRNETRRVQVVFDKSNGTVRLVNLRNS”, 0.856. Consider “DEETQNTRMEEFFKALKTGDEDRAVELADENVKIEIGDRSVSGREVVRHYVQDFQRRVDHNEIKSMRVHNGRAEVTMVVNHNGTTDTRVVHLEAENGRVRRISVDHP”, for which the protease stability score stood at 0.448.

“DEETRKRVETLLEALETGNPEEISKQIDPNATVVVGDKTLHGREDIRDWVRRQHEKIRVEYKHVQIRIHNGRAHVTFEAVVEVNGKPKTVRAQMVFTVSNGKFQHIELHLDEEWKKMEKG”: the protease stability score was 1.38.

Take “DEETTDILNELLRAYQNNDSKRIVELADPNASANIGDKQYHGMEDAARTQVKRMRQIHVEIKHVSSDNQGEKIELEMRFVDNHNGKPEQSTRNMTVVMKNGKVDKFTIRDDG”: the protease stability score amounted to 0.085.

As for “DEEVADNFRKLLHNLEQGDKRRVKEMVDENAHIVVGDKVYHGWETAAQDLVRLMHEIHFTITSVHVEVSNGRVRLKVHMKINVNGKPFRMVFTQEIEAENGTVKYINVQFDPEVLRRIES”, the protease stability score stood at 0.97. As for “DEEVAEQAAKLLEHNDFEKLVDMVDPNVDVEYGDKTVSGRNRVKRVMEKWTRRYDHYEIHTYSISNGRLSADVRAVVNGREVRYVQTIRVHNGRIQKMKIDVTDEDDERNLRKLES”, the figure is -0.161. As to “DEEVAKKMMEAWMKALQNGNDEQMKKLYDPTVRWEDGNTEKQGLEVVVKLVQTVKKKGIEFQVRKAKVKGNQVEVHYDMKVGDDTVTFTVQFRAQGGRIQEVRVEISEEARKAVKKG”, the protease stability score was 1.22. The sequence “DEEVAKKMMETWQKVVQKGNDKDARELYKPNGEWVDGDEKHQGVDYVVKALQRVKKYGAEFQVRKAKVEGDTATMVYDLRIGDKTVTFVVQMQADGGRVERVQVKMNEEAKKAVTHG” displayed a protease stability score of 0.786. Turning to “DEEVAKRMAETWVKAVEKGDTDQVQKVYKPNVEWVAGDEKHQGVEVVKKMMQKVKKLGVEFQLRKRKVEGGTVEFHYDMKNGNDTVTFTVRIDAEGGRVDRVEVEFDEKAQKVVKKG”, the protease stability score was 0.183. “DEEVAKTMAEQWIKAVQKGDKEKLVKHYKPNVQWIDGDERTQGTDVVRKVMETAQKRGVEFQVRKRKVEGDQFEIVYDANVGNKTATFDIKFQVKGGKMEEMRVEVDERAKKVRKEG” registered a protease stability score of 0.094.
